Test [1] has as its target core CoREST complex LSD1/HDAC1/CoREST1 (LHC) (UniProt O60341). Description: enzyme inhibition (fluorogenic HDAC deacetylation assay); LHC (1 nM) pretreated 30 min on ice with inhibitor in 50 mM HEPES 7.5, 100 mM KCl, 100 uM InsP6, 0.2 mg/mL BSA; 50 uM fluorogenic peptide substrate, 37 C, 15 min; Ki = IC50/([S]/Km + 1), competitive model.
Test [2] shares this target. Description: enzyme inhibition (fluorogenic HDAC deacetylation assay); Dixon plot of LHC inhibition by H3K14Hd-modified nucleosomes versus peptide substrate.

With “H3K9Hd containing nucleosome (146 bp mononucleosome with semisynthetic H3K4me2K9Hd) (complex)”, the inhibition constant (Ki) in test [1] stood at 60 nM.

On to “H3K4me2K14Hd(1-34) synthetic H3 peptide (from UniProt P84233 2-35)”, for which, in test [1], the fold lower Ki than the corresponding Hd nucleosome was 30 fold.

Consider “H3K14Hd containing nucleosome (146 bp mononucleosome with semisynthetic H3K4me2K14Hd) (complex)”, for which the Ki in test [1] was found to be 40 nM; in test [2], 35 nM. Turning to “semisynthetic histone H3 H3K4me2K14Hd (from UniProt P84233 2-136) (natural protein)”, the fold lower Ki than the corresponding Hd nucleosome in test [1] is 30 fold. Take “H3K4me2K9Hd(1-34) synthetic H3 peptide (from UniProt P84233 2-35)”: the fold lower Ki than the corresponding Hd nucleosome in test [1] was 30 fold.

(Values after PMC6019071.)
